Biological target: T1, rMuIL15Ra (murine IL-15 receptor R&D Systems) (murine), Q60819
T1 chain: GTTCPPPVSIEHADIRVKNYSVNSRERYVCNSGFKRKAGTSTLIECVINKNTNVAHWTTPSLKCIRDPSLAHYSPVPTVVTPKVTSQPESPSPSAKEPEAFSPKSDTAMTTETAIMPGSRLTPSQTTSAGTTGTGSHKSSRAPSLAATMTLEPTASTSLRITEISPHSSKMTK
Experiment: BLI (ForteBio), biotinylated rMuIL15Ra on SA biosensors, rMuIL15 in solution, 1:1 fit
Details: remark: other sources report otherwise

- Kd: 5.57 nM
B1: rMuIL15 (R&D Systems), P48346 49-162 (ligand, murine, UniProt P48346 49-162, looked up)
chain: NWIDVRYDLEKIESLIQSIHIDTTLYTDSDFHPSCKVTAMNCFLLELQVILHEYSNMTLNETVRNVLYLANSTLSSNKNVAESGCKECEELEEKTFTEFLQSFIRIVQMFINTS
modifications: here or on the partner: biotinylated with EZ-Link NHS-LC-Biotin (sites not given)
